Results reported in the DeepSol protein solubility set.

Experiment: soluble on expression in E. coli; label from the status in PepcDB or PDB records

Sequence	soluble on expression in E. coli
MGSDKIHHHHHHMKKLVFDYEMKLSFSSPVTDHRFQLRCIPATGPRQQVIDVAVKIEPDVELETTIDSFDSVVMTGFIPEPHTMFNYSVTGIAFVDNAHIKSEIYKPLYRFNSALTVPGPAIEALIGICHERIVSLPADCTPIDQAREVMDEVFKTFVYTPASTTIRTTAEEAFAQRKGVCQDYAHVMLSVCRHVGLTARYIAGLLGGEGATHAWVEIYHDGRWVGLDPTHNRMVDDNYITIAHGRDYRDCMLDIGIFSGCDVKQDQWVNASVHEQGY	not soluble
MAGDPMIRKPAVAGYFYPSNRNELLSLISSFHVQQSEVSCQPIGVVVPHAGIVYSGRTAMYSYNALRNSSIRDFIIIGPNHRPMTPYASIFPSGSWETPLGNAIINEELASELYKNSQYIVKDEESHSVEHSIEVQIPFLQYMFGNSFTFVPVILGDQEKVVANDIASALMRLSKPYILIASSDFTHYERSDIVERKDMDLISRIVDLDIDGFYDTIERENVTACGYGAIAILMIIAKKIGAKISLLNHSNSGDVTNDYDEVVGYSSIVACRQILEHHHHHH	not soluble
MNSAKKEFEISHIFTDVSKLENGNFLLSPEEDHFNVPWDLQLYREDDHLDVYLRCTKLTENDEICAIDTEFELTLKTSNGKQMSRRVKVDFTLENIMIPAWRWSKVVSWETLLKEYLIDDSIIVEAAVMIKAMTGIPRMKLRSFEKSAQEYSDAIIAIGDEKFYVLKKFLAAHSTYFKDLLFGDFDFEQAENSEITLSDINSTDFQCLLEVLYGEPAIDEENIDGILKLAQKYNMPLRFGDVKSS	not soluble
GEHTTCGCGEHCGCNPCACGREGTPSGRANRRANCSCGAACNCASCGSATAPG	soluble
GMSNQKHIDKIQAVIKDVKFAMISTSNKKGDIHAWPMTTSEVNLDNKEIWFIGDKTSDVVKDIQDDARIGLTYATQDEKNYVSISGDAELPTDKAKLDELWSPVYSAFFANGKEDANIQLIKVVPHGVECWLSG	soluble
MGSDKIHHHHHHMTGHYSKTEHQYILLTSESASFDHYSVYRDPQLPQIFSHNFVQLHDTFPLERLLNFLPSVPKLLDANYLHLKASPQHVFPLGLKQSLVKSGFVVEDELLYDMKLSDWKGQMGHPLTAWGTAKSLSDGSSIMKIYDSIYIGEAIAEQKLKRKYPFYEADIIILVVCYSDQAQKVPIGCGELFIDHQEKTAKIEEVAILDQFQRKGYGSILVKEMLSIAKSLGMEAAYLVAASTDGATQFYEKLTFKKYERVHTVFHYFLT	not soluble
MKKFTLEEFLDLLKKYNVEEIEGVKIEGDLEIEFEGSSIDLSAIAPLYSMLSEFGNFLYHANMALGYLQRLSAALGIPTPFAAQPQLAPAAPAAPAEVPAVEELKIPAELVRAKFEPYKEEYPGKIEEVVLGATKADGGTREYTVTLGGERSLAFYTFDAPQPHLPAIAIDVFDRRPMLAKAVRMHYEDVLDNPAEWARKCVKKFGADLVTLHLISTDPLLDDTPASEAVKVLEDVLQAVKCPIIVGGSGNKEKDPEVLEKAAEVAEGERIMLASATLDMDWERIANAAKKYGHVVLSWTQMDINNQKTLNRYLLKRVEMPRDSIVMDPTTAALGYGLDYAFTNMERIRISGLKGDTDLNFPISSGTTNAWGAREAWMVDSPIEEDTPWGPRELRGPIWEIITGLTLSLAGVDLFMMMHPVAVAVLKEVFNTLGGKVSGGVADPGEWIFMEV	not soluble
MGSDKIHHHHHHMSGKIAFVTGATGLLGSNLCRALVSQGWQVKGLVRSLDKAKRFLGDSNIELIQGDIEDVPAFTQALKGVDVVFHTAAFFREYYQPGSDWQKMKRINVDTTIELLQAAEAQGVAKVVFTSSSGVIQTDPHQAATETAPYNKFAEQNLYFKTKILAEQEIYRFLNTSQIDVVMILPGWMMGPGDAAPTSAGQLVLDLLAGKLPGVINGGAALTDVRDVATVMVKAAEKGESGGRYIVAGPLTTMKEIALELEAISGVKAPRMEIPDGMAIAIAWFLEKFTGLTGGVNPMPLAGIQTLLEKAKLSSAKAERDLGATFRPLRETLKDTVLWYQSQGYV	not soluble
MGSDKIHHHHHHENLYFQGMFRPQDDFTYLMPVHFGGGKFDPETLVTQKATALSLSFETERDLLENYIPEGFELLAPEVQVAFNKFTEINWLHGGQYNLINVAAPVRFHGKKDELDGAYTLVVWENKTAPILGGREQTGIPKIYADIEDLHIVRPHFATTVSYEGNTFLNMDFEATGSITGRDLDALKSQFLTMNTLGWRYIPKVGAPGAELSQFVLYPQGMEVETAEVGKGSLKWTELTPMQSPAQYYIVNSLASLPIKRVTQAVLVEGRAILRAMGARVIE	soluble
MAHHHHHHMGIGYSQPLTVDTAGPPSSFSCARTVAHVAALTIQRSTQFLGGSTPPPSQSHTHAHHRKKHSHVRSEIACWASATLPSHSNLQRLRDPTTAVNRHSKRCKGEMVVRRMPSDGAGSHATVSENRAPSKRKLRGGFLFASSKWREHLTCNNQNGDTEDHWGLGEGEVRFHSWERILALSVCPLFLLPDGRDSGVTALCGHTEGHEGKERTAVGIMLRTVVKMGDESELTKGGSRGN	soluble
MGHHHHHHSHMGARMTRAFRNFNVEKRAEQEISKRKPSMAPKHPSTRSLLQEHLSQYPEIEEEVSRKDNKLLSLLRDVYVNSKDPVPSLPVKAIEPQQQPKEFRLPIGDQFDKNIKDIPKGKITVVEALTLLNNHKLSPETWTAEKIAQEYHLELEDVNSLLKYFVTFEVKIVPPEDRKAIQSK	not soluble
MSRSTFSILPYINRQKVKADGTANILCRITVDGKSAAISTGISCTPQEWNAKKGEVRNARDNGRLASFLDEIKDKYNALLVANGIITVEMLKAVLKDKDTTGRFLLSFGDTIVEWYRTAKARQTFLHKRTWQKNLRDFVHSLDKDDIAFEDIDENFGEEYKLFLKRDQGRIDSYVNHCLLWLNMLMYKAVDRSIIRFNPIAKIGYEKKAAPKMTHISKADFIKMLSTPMADERTELARRCFIFASLTSLSYIDVKKLYPRHISENSEGRKFIRKEREKTGVEFFVPLHPIAEKILSLYNTTDDSKPVFPLGEKKDIYLDVHTLGMVLGISNKLGFHASRHTFGVLMLNEDIPIGSIAKMMGHADITSTQVYAQVTEQKISNDMDKLIAKREMNRLSNEKTIGK	not soluble
MLEEVERWLDARSWPAADRPVQHLLSAKHATGQSVSVVLPALDEEATVGDIVSVIRRELVLGVPLVDEIVVVDSGSSDRTSEVAAAAGARVVHRDAILPRIPAVPGKGEVLWRSLLVTGGDIVCFVDADLREFSADFVSGIVGPLLTDPDVHLVKAMYDRPLAGAAGQGGRVTELMARPLLNMHWPQLAGFVQPLGGEYAARRSLLERLPFPVGYGVELGMLVDALHLVGLDALAQVDVGVRVHRHQDGRALGRMAAAIYRTAQLRLARGHLVRPALTQFERGVDGFEPRTYAVDTEERPPMTEIAEYAARKVALEHHHHHH	soluble
MSLDEEKVGTEVPDPEISKMLFSEFCKSDGIGVSDVTKEEEFRYEDAWLTGYTYTQEVSIADLTEIISHSLTIQYGNNRSSVTFTDEIGTERKYTLNEEGYATQCEYASLDQKRQYTFLYTDGYLTQVNEKIMPREGSSDAVVAHTLSLQYDKGDLISTISPSLPYESSTGYGKLQTNYEAGEDINYYRLPCMLVADTYPLSFHREALFAGMLGKPTQHLTTASYPEKTSDTYTERTEYTYSFDKNKKPVSLKVSTKYGNGKSISYLNRTISITIEGHHHHHH	soluble
MGSDKIHHHHHHITPSISSKADNLIPRTNLEISNGQVFNESQIRLRGWGLNASGIKAIDIYVDGTWKKTLVKGDGFGLSRPDVKQAFPEYPDADYSGYDYYMYLPDGNHTLRVWAIGNDNSKVYSEANITVDTSNSKGTQLVNYARKFIGVPYVWGGDTPNGFDCSGLVMYCYAHFGVNLPHYTGDQVKYGTVVTDLQPGDLLFFGSTSDPYHVAIYSGNGYMIEAPKTGENVHETPVRSYSIAKRIF	not soluble
MEEKLVTLAILTYTKAQILKNVLENEGIETYIHNVNQIQPVVSSGVRLRIKESDLPRALKITESSAWLAESIVGEKTPKVEHRTKKVLIPVDFSNYSMKACEFGFNFAKSFDAEVILLHVYFTPIYASSLPYGDVFNYQISDEETVKNVLHKVHDDLNTLSEKIKQKVASGEFPDVKYTCVLREGIPEEEILRYNKEHRPRIIIMGTRGKNQKDIDLIGSVTAEIIERSHTTVLAIPENTPFNRFNEVKRIAFMTNFDQRDLIAFDSFINGLSPFHFSVSLIHLSDVKDTWNEIKLAGIKDYFQKQYPDLEIHYDVVMSNDFLNSLDNYIKTNQIDIITLTSYKRNIFSRLFNPGIARKMIFHSDTPLLVING	not soluble
MKKFIGSVLTTTLILGGCSAMENESNKDTNTETKSVPEEMEASKYVGQGFQPPAEKDAIEFAKKHRKEFEKVGEQFFKDNFGLKVKATNVVGKDDGVEVYVHCEDHGIVFNASLPLYKDAIHQKGSMRSNDNGDDMSMMVGTVLSGFEYRAQKEKYDNLYKFFKENEKKYQYTGFTKEAINKTQNVGYQNEYFYITYLSRNLKEYRKYYEPLIHKNDKEFKEGMQQARKELDYTANTDAVSTLFSTKKNFTKDNTVDDVIELSNKLKEKPNMPQKSQVTIQLGKSSINTKKPFYDDINPIEGLEHHHHHH	not soluble
GGNSKSRNDRTETVDKEVIKAPEFDADSAYQYIQVQADFGPRVPNTQAHKECGEYLAGQLEKFGAKVYNQYADLIAYDGTILKSRNIIGAYKPESKKRILLCAHWDSRPYADNDPDPKNHHTPILGVNDGASGVGVLLEIARQIQKEQPALGIDIVFFDSEDYGIPEFYDGKYKQDTWCLGSQYWARTPHVQNYNARYGILLDMVGGKDATFYYEGYSARTARSEMKKIWKKAHELGYGKYFVKEDGGETVDDHIYVNKLARIPCVDIINYDAGNPQSSFGSFWHTVNDTMENIDRNTLKAVGQTVMDVIYNEK	soluble
MGSDKIHHHHHHMLCQFSFKNFKSYKETTTFDFQATSIPEFSESLLKSEKADALLPVGVIYGPNGGGKTNLLLALSCLISTVVKPIYELEKAREKIIIQQKISAAPFYFNEISRKMPTEFEVYFRQGKNEYRYNLSICGDDIVEESLYWKAIGGKRTGMVFDREGAEITLGASINKASINRSVNPKMPYLSFLAINYDIPVIVEVQKWFESCIVKNYANPIADRQIMFSDDESYRKRIVRALNDVDIDVSGYRYDEENHELYTQRMIEGKIYELSFNDESDGTKKMIAALPVILLALQEGRLVIIDELDAKLHPKLLRYVISLFKNKNVNKKGAQLLFTSHDMTTMKNTVFRRDEIWFAAENERHESEIYSLYEIRRENNERVNSTAAYDKQYLEGRYGADPYLTNMLAGGEWL	not soluble
MAHHHHHHGSRFLIRLVPEDKDRAFKVPYNHQYYLQGLIYNAIKSSNPKLATYLHEVKGPKLFTYSLFMAEKREHPKGLPYFLGYKKGFFYFSTCVPEIAEALVNGLLMNPEVRLWDERFYLHEIKVLREPKKFNGSTFVTLSPIAVTVVRKGKSYDVPPMEKEFYSIIKDDLQDKYVMAYGDKPPSEFEMEVLIAKPKRFRIKPGIYQTAWHLVFRAYGNDDLLKVGYEVGFGEKNSLGFGMVKVEGNKTTKEAEEQEKITFNSREELKTGV	soluble
MGHHHHHHSHNSARADVYPDGFKGHMLTKSEKNQLLAIASSLFVAFQLRAQHFQGNSRMPVIKPDIANWELSVKLHDKVHTVVASNNGSVFLVEVDGSKLNVTSTWNLFALIVCQR	not soluble
